Experimental data published in patent publication US20240402174A1 (Takeda / Millennium, published 2024).
Substitutions are numbered along the chain they refer to.

T1: GII.2 VLP (norovirus Hu/GII.2/OH10026/2010/JP)
T1 chain: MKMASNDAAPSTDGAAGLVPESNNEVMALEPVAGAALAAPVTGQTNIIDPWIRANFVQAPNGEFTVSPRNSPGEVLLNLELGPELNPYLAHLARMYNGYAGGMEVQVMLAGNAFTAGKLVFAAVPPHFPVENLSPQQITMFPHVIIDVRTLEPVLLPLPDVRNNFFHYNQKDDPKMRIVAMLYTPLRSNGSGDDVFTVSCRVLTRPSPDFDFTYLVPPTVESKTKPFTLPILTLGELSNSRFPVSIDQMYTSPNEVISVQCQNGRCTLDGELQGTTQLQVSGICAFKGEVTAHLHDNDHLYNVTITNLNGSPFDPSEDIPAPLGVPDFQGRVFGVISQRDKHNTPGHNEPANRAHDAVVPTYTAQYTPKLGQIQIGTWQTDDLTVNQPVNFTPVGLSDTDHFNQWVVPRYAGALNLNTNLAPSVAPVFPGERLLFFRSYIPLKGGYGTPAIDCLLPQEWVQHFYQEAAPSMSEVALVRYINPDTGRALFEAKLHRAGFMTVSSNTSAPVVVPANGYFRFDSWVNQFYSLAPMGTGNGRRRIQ

T2: GII.4/Consensus VLP (norovirus GII.4 consensus sequence, UniProt P54635 1-539)
T2 chain: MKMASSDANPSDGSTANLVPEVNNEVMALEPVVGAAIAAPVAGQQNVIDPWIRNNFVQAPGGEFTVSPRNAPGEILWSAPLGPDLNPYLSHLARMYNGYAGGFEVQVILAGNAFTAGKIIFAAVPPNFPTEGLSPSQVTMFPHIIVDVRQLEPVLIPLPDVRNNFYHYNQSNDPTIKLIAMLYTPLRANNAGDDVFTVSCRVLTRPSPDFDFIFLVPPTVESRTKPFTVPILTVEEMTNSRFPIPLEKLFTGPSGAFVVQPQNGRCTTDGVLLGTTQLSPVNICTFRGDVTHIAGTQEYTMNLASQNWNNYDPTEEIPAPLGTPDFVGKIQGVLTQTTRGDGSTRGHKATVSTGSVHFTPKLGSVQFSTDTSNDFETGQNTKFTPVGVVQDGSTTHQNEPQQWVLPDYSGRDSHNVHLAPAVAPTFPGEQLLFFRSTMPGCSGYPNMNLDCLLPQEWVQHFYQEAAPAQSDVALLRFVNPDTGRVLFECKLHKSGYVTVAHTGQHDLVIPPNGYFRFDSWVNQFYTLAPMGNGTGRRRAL

T3: GII.7 VLP (norovirus Hu/GII.7/NSW088L/2007/AUS)
T3 construct: also called Hu/GII.7/NSW088L/2007/AUS
T3 chain: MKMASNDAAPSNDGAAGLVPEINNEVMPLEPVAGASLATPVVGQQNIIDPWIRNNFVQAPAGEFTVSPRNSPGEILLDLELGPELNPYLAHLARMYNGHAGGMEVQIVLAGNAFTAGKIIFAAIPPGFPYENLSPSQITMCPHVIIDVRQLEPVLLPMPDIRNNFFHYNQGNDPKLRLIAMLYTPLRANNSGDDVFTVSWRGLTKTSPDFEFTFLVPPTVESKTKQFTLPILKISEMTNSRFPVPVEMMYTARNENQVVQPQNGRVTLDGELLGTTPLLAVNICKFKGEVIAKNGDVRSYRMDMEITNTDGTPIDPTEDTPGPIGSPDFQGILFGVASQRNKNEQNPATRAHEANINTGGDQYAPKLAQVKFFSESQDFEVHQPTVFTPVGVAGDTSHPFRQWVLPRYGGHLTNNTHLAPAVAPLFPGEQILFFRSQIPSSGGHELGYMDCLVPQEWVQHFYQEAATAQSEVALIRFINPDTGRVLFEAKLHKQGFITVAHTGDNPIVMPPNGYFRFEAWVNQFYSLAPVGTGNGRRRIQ

T4: GII.4/Yerseke VLP (norovirus Hu/GII.4/Yerseke38/2006/NL, UniProt P54635 1-539)
T4 construct: also called Hu/GII.4/Yerseke38/2006/NL
T4 chain: T2 chain with T228S, G255S, G340R, S364R, V365I, K382R, T425S

T5: GII.4/Den Haag VLP (norovirus Hu/GII.4/DenHaag89/2006/NL, UniProt P54635 1-539)
T5 construct: also called Hu/GII.4/DenHaag89/2006/NL
T5 chain: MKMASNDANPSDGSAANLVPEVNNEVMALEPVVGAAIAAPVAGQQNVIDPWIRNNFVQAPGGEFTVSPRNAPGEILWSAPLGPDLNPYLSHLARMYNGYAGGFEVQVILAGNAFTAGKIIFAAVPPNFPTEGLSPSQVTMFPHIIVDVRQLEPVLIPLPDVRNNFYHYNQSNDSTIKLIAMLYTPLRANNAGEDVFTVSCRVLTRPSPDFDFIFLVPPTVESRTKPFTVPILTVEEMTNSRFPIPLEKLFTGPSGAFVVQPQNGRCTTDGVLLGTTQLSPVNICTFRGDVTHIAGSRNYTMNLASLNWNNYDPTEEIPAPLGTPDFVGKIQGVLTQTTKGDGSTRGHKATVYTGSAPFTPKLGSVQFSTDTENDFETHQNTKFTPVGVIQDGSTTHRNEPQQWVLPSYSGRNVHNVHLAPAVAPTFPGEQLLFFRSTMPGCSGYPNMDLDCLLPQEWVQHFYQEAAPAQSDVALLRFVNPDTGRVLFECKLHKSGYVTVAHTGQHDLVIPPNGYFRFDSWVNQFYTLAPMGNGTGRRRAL

B1: human mAb 1431 (antibody, V domains shown)
VH: QVQLVQSGGGLVQPGGSLRLSCAASGFAFSNHGMHWVRQAPGKGLEWLSYISGSTGAIHYANSVKGRFTISRDNARNSLDLQMNSLGDEDTAVYYCARDGPRPDGTGYAGPSNDYWGQGTLVSVSS
VL: EIVLTQSPASLSLSPGERATLSCKASRSISIYLAWYQQKPGQAPRLLIYDASYRAIGIPARFSGSGSGTDFTLTISNLEPEDFAVYYCQHRSSWPALTFGGGTKVEI
notes: also called A1431
B2: human mAb 1227 (antibody, V domains shown)
VH: QVQLVQSGGGMVQPGGSLSLSCAASGFTLSNYAMTWVRQAPGKGLEWVSSIGGSGGTTYYADSVKGRFTISRDSSMNTLYLQMSNLRAGDTAVYYCAKDKTRTLRLGYSGMDVWGQGTTVTVSS
VL: DIRLTQSPSSLSASVGDRVTITCRASQSISSYLNWYQQKPGKAPDLLIYGASSLQSGVPSRFSGSGSGTDFTLTISSLQPEDFGNYYCQQSFSTPRTFGQGTKVEL
notes: also called A1227

What was measured:
GII.2 VLP = target: T1, GII.2 VLP; test: multiplex microsphere immunoassay
GII.4/Consensus VLP [1] = target: T2, GII.4/Consensus VLP; test: multiplex microsphere immunoassay
GII.7 VLP = target: T3, GII.7 VLP; test: multiplex microsphere immunoassay
GII.4/Yerseke VLP = target: T4, GII.4/Yerseke VLP; test: multiplex microsphere immunoassay
GII.4/Den Haag VLP = target: T5, GII.4/Den Haag VLP; test: PGM blockade assay, serially diluted mAb
Experimental: (§1) Plates were washed 3 times with PBST before use. […] The mixture was transferred to the PGM-coated plates including VLP-only controls and incubation carried out for 1 h at 22° C. or 37° C. Following 3 washes with PBST, detection antibody specific for the corresponding VLP was added and the plates were incubated at room temperature for 1 h and then washed 3 times with PBST. […] Following 3 washes, enzyme substrate (ABTS, KPL) was added and allowed to react for 12 min at room temperature. ABTS Peroxidase Stop Solution (KPL) was then added and plates were read at a wavelength of 450 nm in a Molecular Devices plate reader using SoftMax Pro Software (Molecular Devices, Downingtown, PA, USA) to obtain the Optical Density (GD) of each well.
(§2) The following, day corresponding dilutions incubated with VLPs were transferred to the PGM-coated plates. The OD data was curve fit and blocking titers were calculated as the supernatant dilution interpolated at 1/2 the maximum OD for the plate. The blocking titers represent the supernatant dilution that produces a 50% reduction in VLP binding to PGM. The maximum OD for the plate was calculated from the VLP only control.

GII.4/Consensus VLP [2] = target: T2, GII.4/Consensus VLP; test: PGM blockade assay, serially diluted mAb
Experimental: as §1, §2

Row | Binder | binding result (GII.2 VLP) | EC50 (GII.4/Consensus VLP [1]) [µg/mL] | binding result (GII.7 VLP) | EC50 (GII.4/Yerseke VLP) [µg/mL] | blocking titer (GII.4/Den Haag VLP) | blocking titer (GII.4/Consensus VLP [2]) | EC50 (GII.2 VLP) [µg/mL] | EC50 (GII.7 VLP) [µg/mL]
1 | B1 | no binding | 0.07 | no binding | 0.007 | 5720 | 139000 | – | –
2 | B2 | – | 0.216 | – | 0.002 | 162 | 447 | 0.105 | 0.009
